Assay results as given in patent US7063946B2, “Methods, reagents, kits and apparatus for protein function analysis” (Meso Scale Technologies, LLC., priority 2001, dated 2006).

Columns and labels:
[1] = tested on: pEY; test: In vitro kinase library screen: activity towards pEY; format: biochemical; conditions: 5 ul of expressed protein
Method: Proteins were produced in an in vitro transcription and translation reaction. […] The unbound components of the reaction containing endogenous kinases were removed by three washes with TT-buffer (25 mM Tris-HCl buffer pH 7.4 and 0.004% Triton), two five minutes washings with high-salt wash buffer (25 mM Tris-HCl buffer pH 7.4, 0.004% Triton, 1M NaCl and 5 mM DTT) and 3 more washes with TT-buffer. To these immobilized and purified proteins a tyrosine kinase substrate, 5 nM pEY (poly Glu-Tyr, Sigma, MO), was added in a 50 μl reaction solution containing 5 mM MgCl2, 5 mM MnCl2, 100 μM ATP, 25 mM Tris-HCl buffer pH 7.4, 0.05 mM Na3VO4, 0.004% TritonX-100, 2 mM DTT and EDTA-free protease inhibitor (Roche Molecular Biochemicals). This mixture was incubated with shaking at room temperature overnight to allow phosphorylation of the pEY substrate by the immobilized kinases. Following this incubation, 45 μl of this mixture was transferred to a streptavidin or avidin-coated NPT IPR plate coated with biotinylated anti-phosphotyrosine antibody (PY20, Zymed labs, CA) followed by incubation for 30 minutes at room temperature to allow the binding of the phosphorylated pEY substrate to the PY20 coated NPT plate. Following this binding step, 50 ng Sulfo-TAG labeled anti-phosphotyrosine in buffer containing 25 mM Tris-HCl buffer pH 7.4, 5 mM MgCl2, 0.05 mM Na3VO4, 0.004% TritonX-100, 2 mM DTT and 0.05% IgG was added followed by incubation at room temperature for 30 mm. The unbound reagents were removed by one time washing with water, and the TAG label was detected in presence of 150 μl IPR assay buffer (0.4 mM Gly-Gly buffer, pH 7.8, 1 mM EDTA, 0.1 M TPA). The ECL signals were measured using an imaging plate reader.
(§1) Proteins were produced in an in vitro transcription and translation reaction as described in the Materials and Methods. […] The reaction was stopped by mixing with BB2 buffer. Biotinylated proteins from 50 μl of the mixture (representing 0.5 μl to 5 μl of TnT reaction) were immobilized onto streptavidin or avidin coated NPT-IPR plates by shaking at room temperature for 45 min. The activity of the immobilized protein towards pEY or autophosphorylation was further assayed by the methods described in examples 7 and 8.

[2] = tested on: autophosphorylation (phosphotyrosine); test: In vitro kinase library screen: autophosphorylation; format: biochemical
Method: Proteins were produced from DNA plasmids of Mock Luciferase, Promega, tyrosine kinase clone Spleen Tyrosine kinase (SYK, IMAGE ID# 3870426) and Eph receptor-A7 (EphA7, IMAGE ID# 3991628) (Incyte Genomics, CA) and immobilized on streptavidin or avidin coated NPT-IPR plates as described in the Example 7. To promote autophosphorylation in these immobilized and purified proteins, Mn++ ions were added in a 50 μl reaction containing 5 mM MgCl2, 5 mM MnCl2, 100 μM ATP, 25 mM Tris-HCl buffer pH 7.4, 0.05 mM Na3VO4, 0.004% TritonX-100, 2 mM DTT and EDTA-free protease inhibitor (Roche Molecular Biochemicals). This mixture was incubated with shaking at room temperature overnight to allow autophosphorylation. Following this incubation, wells were washed 2 times with TT-buffer and 2 times with water. Following this step, 50 ng Sulfo-TAG labeled anti-phosphotyrosine in buffer containing 25 mM Tris-HCl buffer pH 7.4, 5 mM MgCl2, 0.05 mM Na3VO4, 0.004% TritonX-100, 2 mM DTT and 0.05% IgG in a final volume of 50 μl was added followed by incubation at room temperature for 45 min. The unbound reagents were removed by one time washing with water, and the TAG label was detected in presence of 150 μl IPR assay buffer (0.4 mM Gly—Gly buffer, pH 7.8, 1 mM EDTA, 0.1 M TPA). The ECL signals were measured using an imaging plate reader.
as §1

Row | HTS signal [1] | ECL signal [2] | Molecule
1 | 853 | 3,138 | 4498209: IMAGE clone protein: EPHB1, EphB1 (protein, UniProt P54762 18-984, looked up) Ephrin type-B receptor 1: MEETLMDTRTATAELGWTANPASGWEEVSGYDENLNTIRTYQVCNVFEPNQNNWLLTTFINRRGAHRIYTEMRFTVRDCSSLPNVPGSCKETFNLYYYETDSVIATKKSAFWSEAPYLKVDTIAADESFSQVDFGGRLMKVNTEVRSFGPLTRNGFYLAFQDYGACMSLLSVRVFFKKCPSIVQNFAVFPETMTGAESTSLVIARGTCIPNAEEVDVPIKLYCNGDGEWMVPIGRCTCKPGYEPENSVACKACPAGTFKASQEAEGCSHCPSNSRSPAEASPICTCRTGYYRADFDPPEVACTSVPSGPRNVISIVNETSIILEWHPPRETGGRDDVTYNIICKKCRADRRSCSRCDDNVEFVPRQLGLTECRVSISSLWAHTPYTFDIQAINGVSSKSPFPPQHVSVNITTNQAAPSTVPIMHQVSATMRSITLSWPQPEQPNGIILDYEIRYYEKEHNEFNSSMARSQTNTARIDGLRPGMVYVVQVRARTVAGYGKFSGKMCFQTLTDDDYKSELREQLPLIAGSAAAGVVFVVSLVAISIVCSRKRAYSKEAVYSDKLQHYSTGRGSPGMKIYIDPFTYEDPNEAVREFAKEIDVSFVKIEEVIGAGEFGEVYKGRLKLPGKREIYVAIKTLKAGYSEKQRRDFLSEASIMGQFDHPNIIRLEGVVTKSRPVMIITEFMENGALDSFLRQNDGQFTVIQLVGMLRGIAAGMKYLAEMNYVHRDLAARNILVNSNLVCKVSDFGLSRYLQDDTSDPTYTSSLGGKIPVRWTAPEAIAYRKFTSASDVWSYGIVMWEVMSFGERPYWDMSNQDVINAIEQDYRLPPPMDCPAALHQLMLDCWQKDRNSRPRFAEIVNTLDKMIRNPASLKTVATITAVPSQPLLDRSIPDFTAFTTVDDWLSAIKMVQYRDSFLTAGFTSLQLVTQMTSEDLLRIGITLAGHQKKILNSIHSMRVQISQSPTAMA
2 | 958,415 | 1,198,625 | 4778819: IMAGE clone protein: Hck, hemopoietic cell kinase (protein, UniProt P08103 2-524, looked up) Tyrosine-protein kinase HCK: GGRSSCEDPGCPRSEGRAPRMGCVKSRFLRDGSKASKTEPSANQKGPVYVPDPTSSSKLGPNNSNSMPPGFVEGSEDTIVVALYDYEAIHREDLSFQKGDQMVVLEEAGEWWKARSLATKKEGYIPSNYVARVNSLETEEWFFKGISRKDAERHLLAPGNMLGSFMIRDSETTKGSYSLSVRDFDPQHGDTVKHYKIRTLDSGGFYISPRSTFSSLQELVLHYKKGKDGLCQKLSVPCVSPKPQKPWEKDAWEIPRESLQMEKKLGAGQFGEVWMATYNKHTKVAVKTMKPGSMSVEAFLAEANLMKSLQHDKLVKLHAVVSQEPIFIVTEFMAKGSLLDFLKSEEGSKQPLPKLIDFSAQISEGMAFIEQRNYIHRDLRAANILVSASLVCKIADFGLARIIEDNEYTAREGAKFPIKWTAPEAINFGSFTIKSDVWSFGILLMEIVTYGRIPYPGMSNPEVIRALEHGYRMPRPDNCPEELYNIMIRCWKNRPEERPTFEYIQSVLDDFYTATESQYQQQP
3 | 1,711 | 50,479 | 4537393: IMAGE clone protein: TTK protein kinase (protein, UniProt P33981 1-857, looked up) Dual specificity protein …: MESEDLSGRELTIDSIMNKVRDIKNKFKNEDLTDELSLNKISADTTDNSGTVNQIMMMANNPEDWLSLLLKLEKNSVPLSDALLNKLIGRYSQAIEALPPDKYGQNESFARIQVRFAELKAIQEPDDARDYFQMARANCKKFAFVHISFAQFELSQGNVKKSKQLLQKAVERGAVPLEMLEIALRNLNLQKKQLLSEEEKKNLSASTVLTAQESFSGSLGHLQNRNNSCDSRGQTTKARFLYGENMPPQDAEIGYRNSLRQTNKTKQSCPFGRVPVNLLNSPDCDVKTDDSVVPCFMKRQTSRSECRDLVVPGSKPSGNDSCELRNLKSVQNSHFKEPLVSDEKSSELIITDSITLKNKTESSLLAKLEETKEYQEPEVPESNQKQWQSKRKSECINQNPAASSNHWQIPELARKVNTEQKHTTFEQPVFSVSKQSPPISTSKWFDPKSICKTPSSNTLDDYMSCFRTPVVKNDFPPACQLSTPYGQPACFQQQQHQILATPLQNLQVLASSSANECISVKGRIYSILKQIGSGGSSKVFQVLNEKKQIYAIKYVNLEEADNQTLDSYRNEIAYLNKLQQHSDKIIRLYDYEITDQYIYMVMECGNIDLNSWLKKKKSIDPWERKSYWKNMLEAVHTIHQHGIVHSDLKPANFLIVDGMLKLIDFGIANQMQPDTTSVVKDSQVGTVNYMPPEAIKDMSSSRENGKSKSKISPKSDVWSLGCILYYMTYGKTPFQQIINQISKLHAIIDPNHEIEFPDIPEKDLQDVLKCCLKRDPKQRISIPELLAHPYVQIQTHPVNQMAKGTTEEMKYVLGQLVGLNSPNSILKAAKTLYEHYSGGESHNSSSSKTFEKKRGKK

Further lines, the molecule ahead of its results:

Row | Molecule | HTS signal [1] | ECL signal [2]
4 | 4398416: IMAGE clone protein: Csk, c-src tyrosine kinase (protein, UniProt P41241 2-450, looked up) Tyrosine-protein kinase CSK: SAIQAAWPSGTECIAKYNFHGTAEQDLPFCKGDVLTIVAVTKDPNWYKAKNKVGREGIIPANYVQKREGVKAGTKLSLMPWFHGKITREQAERLLYPPETGLFLVRESTNYPGDYTLCVSCEGKVEHYRIMYHASKLSIDEEVYFENLMQLVEHYTTDADGLCTRLIKPKVMEGTVAAQDEFYRSGWALNMKELKLLQTIGKGEFGDVMLGDYRGNKVAVKCIKNDATAQAFLAEASVMTQLRHSNLVQLLGVIVEEKGGLYIVTEYMAKGSLVDYLRSRGRSVLGGDCLLKFSLDVCEAMEYLEGNNFVHRDLAARNVLVSEDNVAKVSDFGLTKEASSTQDTGKLPVKWTAPEALREKKFSTKSDVWSFGILLWEIYSFGRVPYPRIPLKDVVPRVEKGYKMDAPDGCPPAVYEVMKNCWHLDAATRPTFLQLREQLEHIKTHELHL | 683,039 | 349,847
5 | 4384416: IMAGE clone protein: BTK, Bruton agammaglobulinemia tyrosine kinase (protein, UniProt Q06187 2-659, looked up) Tyrosine-protein kinase BTK: AAVILESIFLKRSQQKKKTSPLNFKKRLFLLTVHKLSYYEYDFERGRRGSKKGSIDVEKITCVETVVPEKNPPPERQIPRRGEESSEMEQISIIERFPYPFQVVYDEGPLYVFSPTEELRKRWIHQLKNVIRYNSDLVQKYHPCFWIDGQYLCCSQTAKNAMGCQILENRNGSLKPGSSHRKTKKPLPPTPEEDQILKKPLPPEPAAAPVSTSELKKVVALYDYMPMNANDLQLRKGDEYFILEESNLPWWRARDKNGQEGYIPSNYVTEAEDSIEMYEWYSKHMTRSQAEQLLKQEGKEGGFIVRDSSKAGKYTVSVFAKSTGDPQGVIRHYVVCSTPQSQYYLAEKHLFSTIPELINYHQHNSAGLISRLKYPVSQQNKNAPSTAGLGYGSWEIDPKDLTFLKELGTGQFGVVKYGKWRGQYDVAIKMIKEGSMSEDEFIEEAKVMMNLSHEKLVQLYGVCTKQRPIFIITEYMANGCLLNYLREMRHRFQTQQLLEMCKDVCEAMEYLESKQFLHRDLAARNCLVNDQGVVKVSDFGLSRYVLDDEYTSSVGSKFPVRWSPPEVLMYSKFSSKSDIWAFGVLMWEIYSLGKMPYERFTNSETAEHIAQGLRLYRPHLASEKVYTIMYSCWHEKADERPTFKILLSNILDVMDEES | 793,874 | 1,503,772
